Source: the RNAGym collection of RNA variant scans (doi:10.7554/elife.80360)

B1: CPEB3 Ribozyme (parent)
chain: GGGGGCCACAGCAGAAGCGUUCACGUCGCGGCCCCUGUCAGAUUCUGGUGAAUCUGCGAAUUCUGCUGU

Variants of: B1
Test: self-cleavage, relative activity (ratio to wild type); higher = more cleavage; co-transcriptional

In order of rising self-cleavage:
1. GGGGGCCACAGCAGAAGCGUUCACGCCCCGGCCCCUGUCAGAUUCUGGUGAAUCUGCGAAUUCUGCUGU [U26C G28C]  0.1
2. GGGGGCCACAGCAGAAGCGUUCACGCCGCGGCCCCGGUCAGAUUCUGGUGAAUCUGCGAAUUCUGCUGU [U26C U36G]  0.123
3. GGGGGCCACAGCAGAAGCGUUCACGCCGCGGCCCCUCUCAGAUUCUGGUGAAUCUGCGAAUUCUGCUGU [U26C G37C]  0.178
4. GGGGGCCACAGCAGAAGCGUUCACGACGCGCCCCCUGUCAGAUUCUGGUGAAUCUGCGAAUUCUGCUGU [U26A G31C]  0.18
5. GGGGGCCACAGCAGAAGCGUUCACGCUGCGGCCCCUGUCAGAUUCUGGUGAAUCUGCGAAUUCUGCUGU [U26C C27U]  0.182
6. GGGGGCCACAGCAGAAGCGUUCACGCGGCGGCCCCUGUCAGAUUCUGGUGAAUCUGCGAAUUCUGCUGU [U26C C27G]  0.195
7. GGGGGCCACAGCAGAAGCGUUCACGACUCGGCCCCUGUCAGAUUCUGGUGAAUCUGCGAAUUCUGCUGU [U26A G28U]  0.211
8. GGGGGCCACAGCAGAAGCGUUCACGCCGCGGCCCAUGUCAGAUUCUGGUGAAUCUGCGAAUUCUGCUGU [U26C C35A]  0.254
9. GGGGGCCACAGCAGAAGCGUUCACGACGCUGCCCCUGUCAGAUUCUGGUGAAUCUGCGAAUUCUGCUGU [U26A G30U]  0.254
10. GGGGGCCACAGCAGAAGCGUUCACGGCGCGGCCCCUGUCAGAUUCUGGUGAAUCUGUGAAUUCUGCUGU [U26G C57U]  0.255
11. GGGGGCCACAGCAGAAGCGUUCACGACGCCGCCCCUGUCAGAUUCUGGUGAAUCUGCGAAUUCUGCUGU [U26A G30C]  0.266
12. GGGGGCCACAGCAGAAGCGUUCACGACGCGUCCCCUGUCAGAUUCUGGUGAAUCUGCGAAUUCUGCUGU [U26A G31U]  0.27
13. GGGGGCCACAGCAGAAGCGUUCACGGCGAGGCCCCUGUCAGAUUCUGGUGAAUCUGCGAAUUCUGCUGU [U26G C29A]  0.329
14. GGGGGCCACAGCAGAAGCGUUCACGGCGCGGCCCCUGUCAGAUUCUGGUGAAUCUGCGACUUCUGCUGU [U26G A60C]  0.361
15. GGGGGCCACAGCAGAAGCGUUCACGCCGCGGCCCCUGUCAGAUUCUGGUGAAUCUGUGAAUUCUGCUGU [U26C C57U]  0.408
16. GGGGGCCACAGCAGAAGCGUUCACGGCGCGGCCCCUGUCAGAUUCUGGUGAAUCUGCGAAUUGUGCUGU [U26G C63G]  0.427
17. GGGGGCCACAGCAGAAGCGUUCACGCAGCGGCCCCUGUCAGAUUCUGGUGAAUCUGCGAAUUCUGCUGU [U26C C27A]  0.45
18. GGGGGCCACAGCAGAAGCGUUCACGGCGCGGCCCCUGUCAGAUUCUGGUGAAUCUGCGUAUUCUGCUGU [U26G A59U]  0.455
19. GGGGGCCACAGCAGAAGCGUUCACGGAGCGGCCCCUGUCAGAUUCUGGUGAAUCUGCGAAUUCUGCUGU [U26G C27A]  0.458
20. GGGGGCCACAGCAGAAGCGUUCACGACGCGGCCCCUGUCAGAUUCUGGUGAAUCUGCGAAUUCUCCUGU [U26A G65C]  0.466
21. GGGGGCCACAGCAGAAGCGUUCACGACGCGGCCCCUGUCAGAUUCUGGUGAAUCUGCGAAUUCUUCUGU [U26A G65U]  0.466
22. GGGGGCCACAGCAGAAGCGUUCACGCCGCCGCCCCUGUCAGAUUCUGGUGAAUCUGCGAAUUCUGCUGU [U26C G30C]  0.486
23. GGGGGCCACAGCAGAAGCGUUCACGACGCGGCCCCUGUCAGAUUCUGGUGAAUCUGCGAAUUGUGCUGU [U26A C63G]  0.507
24. GGGGGCCACAGCAGAAGCGUUCACGACGCGGCCCCUGUCAGAUUCUGGUGAAUCUGCGAAAUCUGCUGU [U26A U61A]  0.515
25. GGGGGCCACAGCAGAAGCGUUCACGACGCGGCCCCUGUCAAAUUCUGGUGAAUCUGCGAAUUCUGCUGU [U26A G41A]  0.561
26. GGGGGCCACAGCAGAAGCGUUCACGGCGCGGCCACUGUCAGAUUCUGGUGAAUCUGCGAAUUCUGCUGU [U26G C34A]  0.57
27. GGGGGCCACAGCAGAAGCGUUCACGCCGCGGCCCCUGUCAGAUUCUGGUGAAUCUGCGAAUUCUUCUGU [U26C G65U]  0.604
28. GGGGGCCACAGCAGAAGCGUUCACGACGCGGCCCCUGUCAGAUUCUGGUGAAUCUGCAAAUUCUGCUGU [U26A G58A]  0.627
29. GGGGGCCACAGCAGAAGCGUUCACGGCGCGGCCCCUGUCAGAUUCUGGUGAAUCUGCGAGUUCUGCUGU [U26G A60G]  0.631
30. GGGGGCCACAGCAGAAGCGUUCACGACGCGGCCCCUGUCAGAUUCUGGUGAAUCUGCGAAUGCUGCUGU [U26A U62G]  0.652
31. GGGGGCCACAGCAGAAGCGUUCACGACGCGGCCCCUGUCAGAUUCUGGUGAAUCUGCGAAUCCUGCUGU [U26A U62C]  0.669
32. GGGGGCCACAGCAGAAGCGUUCACGACGCGGCCCCUGUCAUAUUCUGGUGAAUCUGCGAAUUCUGCUGU [U26A G41U]  0.67
33. GGGGGCCACAGCAGAAGCGUUCACGCCGCGGCCCCUGUCAGAUUCUGGUGAAUCUGCGAAUGCUGCUGU [U26C U62G]  0.694
34. GGGGGCCACAGCAGAAGCGUUCACGACGCGGCCCCUGUCAGAUUCUGGUGAAUCUGCGAAUUCCGCUGU [U26A U64C]  0.72
35. GGGGGCCACAGCAGAAGCGUUCACGGCGCGGCCCUUGUCAGAUUCUGGUGAAUCUGCGAAUUCUGCUGU [U26G C35U]  0.726
36. GGGGGCCACAGCAGAAGCGUUCACGCCGCGGCCACUGUCAGAUUCUGGUGAAUCUGCGAAUUCUGCUGU [U26C C34A]  0.731
37. GGGGGCCACAGCAGAAGCGUUCACGCCGCGGCCCCUGUCAGAUUCUGGUGAAUCGGCGAAUUCUGCUGU [U26C U55G]  0.74
38. GGGGGCCACAGCAGAAGCGUUCACGACGCGGCCCCUGUCAGAUUCUGGUGAAUCAGCGAAUUCUGCUGU [U26A U55A]  0.745
39. GGGGGCCACAGCAGAAGCGUUCACGACGCGGCCCCUGUCAGAUUCUGGUGAAUCUACGAAUUCUGCUGU [U26A G56A]  0.748
40. GGGGGCCACAGCAGAAGCGUUCACGCCGCGGACCCUGUCAGAUUCUGGUGAAUCUGCGAAUUCUGCUGU [U26C C32A]  0.753
41. GGGGGCCACAGCAGAAGCGUUCACGACGCGGCCCCUGUCAGAUCCUGGUGAAUCUGCGAAUUCUGCUGU [U26A U44C]  0.768
42. GGGGGCCACAGCAGAAGCGUUCACGACGCGGCCCCUGUCAGAUUCUGGUGAAUCUGCGAAUUUUGCUGU [U26A C63U]  0.779
43. GGGGGCCACAGCAGAAGCGUUCACGGCGCGGCCCCUGUCAGGUUCUGGUGAAUCUGCGAAUUCUGCUGU [U26G A42G]  0.78
44. GGGGGCCACAGCAGAAGCGUUCACGACGCGGCCCCUGUCAGAUUCUGGCGAAUCUGCGAAUUCUGCUGU [U26A U49C]  0.79
45. GGGGGCCACAGCAGAAGCGUUCACGCCGCGGCCCCUGUAAGAUUCUGGUGAAUCUGCGAAUUCUGCUGU [U26C C39A]  0.79
46. GGGGGCCACAGCAGAAGCGUUCACGACGCGGCCCCUGUCAGAUUCUGGUGAAUCUGCCAAUUCUGCUGU [U26A G58C]  0.792
47. GGGGGCCACAGCAGAAGCGUUCACGACGCGGCCCCUGUCAGAUUCCGGUGAAUCUGCGAAUUCUGCUGU [U26A U46C]  0.809
48. GGGGGCCACAGCAGAAGCGUUCACGACGCGGCCCCUGUCAGAUUCUGGUUAAUCUGCGAAUUCUGCUGU [U26A G50U]  0.818
49. GGGGGCCACAGCAGAAGCGUUCACGACGCGGCCCCUGUCAGAAUCUGGUGAAUCUGCGAAUUCUGCUGU [U26A U43A]  0.846
50. GGGGGCCACAGCAGAAGCGUUCACGCCGCGGCCCCUGUCAGAUUCUGGUGAAUCUGCGAGUUCUGCUGU [U26C A60G]  0.85
51. GGGGGCCACAGCAGAAGCGUUCACGACGCGGCCCCUGUCAGAUUCUGGUGAAUCUGCUAAUUCUGCUGU [U26A G58U]  0.852
52. GGGGGCCACAGCAGAAGCGUUCACGCCGCGGCCCCUGUCAGAUUCUGGUGAAUCUACGAAUUCUGCUGU [U26C G56A]  0.855
53. GGGGGCCACAGCAGAAGCGUUCACGCCGCGGCCCCUGUCAGAAUCUGGUGAAUCUGCGAAUUCUGCUGU [U26C U43A]  0.865
54. GGGGGCCACAGCAGAAGCGUUCACGACGCGGCCCCUGUCAGAUUCUGGAGAAUCUGCGAAUUCUGCUGU [U26A U49A]  0.866
55. GGGGGCCACAGCAGAAGCGUUCACGACGCGGCCCCUGUCAGAUUCUGGGGAAUCUGCGAAUUCUGCUGU [U26A U49G]  0.866
56. GGGGGCCACAGCAGAAGCGUUCACGCCGCGGCCCCUGUCAGAUUCUGGUGAAGCUGCGAAUUCUGCUGU [U26C U53G]  0.873
57. GGGGGCCACAGCAGAAGCGUUCACGACGCGGCCCCUGUCAGAUUCUCGUGAAUCUGCGAAUUCUGCUGU [U26A G47C]  0.891
58. GGGGGCCACAGCAGAAGCGUUCACGCCGCGGCCCCUGUCAGACUCUGGUGAAUCUGCGAAUUCUGCUGU [U26C U43C]  0.892
59. GGGGGCCACAGCAGAAGCGUUCACGACGCGGCCCCUGUCAGAUUCUGGUGAAUCUGCGAAUUCUGCUUU [U26A G68U]  0.901
60. GGGGGCCACAGCAGAAGCGUUCACGACGCGGCCCCUGUCAGAUUCUGGUGAAUCUGCGAAUUCUGCAGU [U26A U67A]  0.913
61. GGGGGCCACAGCAGAAGCGUUCACGGCGCGGUCCCUGUCAGAUUCUGGUGAAUCUGCGAAUUCUGCUGU [U26G C32U]  0.922
62. GGGGGCCACAGCAGAAGCGUUCACGCCGCGGCCCCUGUCAGGUUCUGGUGAAUCUGCGAAUUCUGCUGU [U26C A42G]  0.924
63. GGGGGCCACAGCAGAAGCGUUCACGACGCGGCCCCUGUCAGAUUCUGUUGAAUCUGCGAAUUCUGCUGU [U26A G48U]  0.928
64. GGGGGCCACAGCAGAAGCGUUCACGCCGCGGCCUCUGUCAGAUUCUGGUGAAUCUGCGAAUUCUGCUGU [U26C C34U]  0.935
65. GGGGGCCACAGCAGAAGCGUUCACGCCGCGGCCCCUGUCAGAUUAUGGUGAAUCUGCGAAUUCUGCUGU [U26C C45A]  0.936
66. GGGGGCCACAGCAGAAGCGUUCACGACGCGGCCCCUGUCAGAUUCUGGUGAAUCUGCGAAUUCUGCUGA [U26A U69A]  0.938
67. GGGGGCCACAGCAGAAGCGUUCACGCCGCGGCCCCUGUCAGAUUCUGGUGAAUCUGCGAAUUCUGUUGU [U26C C66U]  0.939
68. GGGGGCCACAGCAGAAGCGUUCACGCCGCGGCCCCUGUCAGAUUCUGGUAAAUCUGCGAAUUCUGCUGU [U26C G50A]  0.953
69. GGGGGCCACAGCAGAAGCGUUCACGCCGCGGCCCCUGUCAGAUUCUGGUGAAACUGCGAAUUCUGCUGU [U26C U53A]  0.958
70. GGGGGCCACAGCAGAAGCGUUCACGACGCGGCCCCUGUCAGAUUCUGGUGAAUCUGCGAAUUCUGCUCU [U26A G68C]  0.964
71. GGGGGCCACAGCAGAAGCGUUCACGCCGCGGUCCCUGUCAGAUUCUGGUGAAUCUGCGAAUUCUGCUGU [U26C C32U]  0.974
72. GGGGGCCACAGCAGAAGCGUUCACGGCGCGGCCCCUGUCAGAUUUUGGUGAAUCUGCGAAUUCUGCUGU [U26G C45U]  0.982
73. GGGGGCCACAGCAGAAGCGUUCACGCCGCGGCCCCUGUCAGAUUGUGGUGAAUCUGCGAAUUCUGCUGU [U26C C45G]  0.983
74. GGGGGCCACAGCAGAAGCGUUCACGCCGCGGCCCCUGUCAGAUUCUGGAGAAUCUGCGAAUUCUGCUGU [U26C U49A]  0.984
75. GGGGGCCACAGCAGAAGCGUUCACGCCGCGGCUCCUGUCAGAUUCUGGUGAAUCUGCGAAUUCUGCUGU [U26C C33U]  0.997
76. GGGGGCCACAGCAGAAGCGUUCACGCCGCGGCCCCUGUCAGAUUCUGUUGAAUCUGCGAAUUCUGCUGU [U26C G48U]  1.01
77. GGGGGCCACAGCAGAAGCGUUCACGCCGCGGCCCCUGUCAGAUUCUGGUGAAUCUGCGAAUUCUGCUCU [U26C G68C]  1.03
78. GGGGGCCACAGCAGAAGCGUUCACGCCGCGGCCCCUGUCAGAUUCUGGUGAAUCUGCGAAUUCUGCUGG [U26C U69G]  1.06
